Data on one protein can be found in patent US20240060126.

In data set [1] the target is MspA-((Del-L74/G75/D118/L119)G1A/D56N/E59F/L88N/D90N/D91N/Q126R/D134R/E139K)8.
For data set [2], the target named is MspA-((Del-L74/G75/D118/L119)D56F/E59R/L88N/D90N/D91N/Q126R/D134R/E139K)8.

B1: T4 Dda-E94C/C109A/C136A/K199L/A360C (protein)
chain: MTFDDLTEGQKNAFNIVMKAIKEKKHHVTINGPAGTGKTTLTKFIIEALISTGETGIILAAPTHAAKKILSKLSGKEASTIHSILKINPVTYECNVLFEQKEVPDLAKARVLICDEVSMYDRKLFKILLSTIPPWATIIGIGDNKQIRPVDPGENTAYISPFFTHKDFYQCELTEVKRSNAPIIDVATDVRNGKWIYDLVVDGHGVRGFTGDTALRDFMVNYFSIVKSLDDLFENRVMAFTNKSVDKLNSIIRKKIFETDKDFIVGEIIVMQEPLFKTYKIDGKPVSEIIFNNGQLVRIIEAEYTSTFVKARGVPGEYLIRHWDLTVETYGDDEYYREKIKIISSDEELYKFNLFLGKTCETYKNWNKGGKAPWSDFWDAKSQFSKVKALPASTFHKAQGMSVDRAFIYTPCIHYADVELAQQLLYVGVTRGRYDVFYV
As for B1, in data set [1], the “% bases missed in construct X” value is reported as “the lowest % bases missed in construct X” and the “slips forward per kilobase” value is “less than 5 slips forward per kilobase”. Besides, the “slips forward per kilobase” value in data set [2] is on record as “less than 5 slips forward per kilobase”.
